Assay results reported in US20240368668A1, “SUBSTRATES AND BIOMARKERS OF ADAMTS7” (The Broad Institute, Inc., priority 2021, published 2024).
Square brackets hold non-standard residues; d marks the D form. Ends that are not written are not given here. deamidated = deamidated asparagine; Met(O) = CS(=O)CC[C@H](N)C(=O)O

Molecular target: T1, mouse ADAMTS7 (Mus musculus, UniProt Q68SA9, E373Q)
T1 construct: Full-length mouse Adamts7 1-1857 (Uniprot Q68SA9, WT or E373Q catalytic mutant); expressed in transfected cells; host or cells: Human Coronary Artery Smooth Muscle Cells (HCA-SMC, Lonza), adenovirus 50 MOI
T1 sequence (Q68SA9 221-1657 E373Q): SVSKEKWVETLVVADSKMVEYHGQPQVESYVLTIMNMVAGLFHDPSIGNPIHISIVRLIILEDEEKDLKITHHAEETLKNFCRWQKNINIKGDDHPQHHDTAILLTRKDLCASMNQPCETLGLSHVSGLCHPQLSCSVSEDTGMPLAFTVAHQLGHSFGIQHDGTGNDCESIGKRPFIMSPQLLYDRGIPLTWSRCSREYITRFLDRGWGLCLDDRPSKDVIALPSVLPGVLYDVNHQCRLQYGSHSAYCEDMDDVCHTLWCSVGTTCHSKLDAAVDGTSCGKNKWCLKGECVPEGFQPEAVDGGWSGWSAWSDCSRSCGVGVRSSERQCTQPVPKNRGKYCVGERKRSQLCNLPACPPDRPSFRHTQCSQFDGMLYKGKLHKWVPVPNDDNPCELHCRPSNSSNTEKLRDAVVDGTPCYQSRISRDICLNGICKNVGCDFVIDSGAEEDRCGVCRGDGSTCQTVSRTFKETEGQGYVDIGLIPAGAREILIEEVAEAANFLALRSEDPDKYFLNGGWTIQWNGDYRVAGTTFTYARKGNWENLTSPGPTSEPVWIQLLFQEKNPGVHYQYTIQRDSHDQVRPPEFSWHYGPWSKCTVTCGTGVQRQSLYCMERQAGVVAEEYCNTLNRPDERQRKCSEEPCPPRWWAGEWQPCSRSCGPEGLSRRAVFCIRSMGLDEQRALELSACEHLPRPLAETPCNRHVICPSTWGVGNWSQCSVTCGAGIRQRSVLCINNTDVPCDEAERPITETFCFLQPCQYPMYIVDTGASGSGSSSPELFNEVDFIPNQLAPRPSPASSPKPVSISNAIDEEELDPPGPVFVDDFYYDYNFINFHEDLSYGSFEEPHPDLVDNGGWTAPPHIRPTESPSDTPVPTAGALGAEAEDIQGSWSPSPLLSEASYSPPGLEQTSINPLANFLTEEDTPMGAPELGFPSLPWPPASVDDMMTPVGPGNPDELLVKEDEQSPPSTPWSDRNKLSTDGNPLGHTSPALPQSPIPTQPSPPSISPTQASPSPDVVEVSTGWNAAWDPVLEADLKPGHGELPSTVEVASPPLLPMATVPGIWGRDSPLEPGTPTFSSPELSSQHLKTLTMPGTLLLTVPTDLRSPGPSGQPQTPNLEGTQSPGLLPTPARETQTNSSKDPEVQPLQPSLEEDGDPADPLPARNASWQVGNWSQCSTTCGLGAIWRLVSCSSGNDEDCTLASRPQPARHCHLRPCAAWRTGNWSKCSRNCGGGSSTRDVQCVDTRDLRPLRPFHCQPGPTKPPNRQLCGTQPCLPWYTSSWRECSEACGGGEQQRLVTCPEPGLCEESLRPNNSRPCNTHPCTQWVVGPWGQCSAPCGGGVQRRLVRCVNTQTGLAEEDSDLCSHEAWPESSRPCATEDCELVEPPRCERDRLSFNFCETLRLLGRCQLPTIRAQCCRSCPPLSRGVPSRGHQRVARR
Test: TMT10 TAILS N-terminomics, SMC1 experiment (Ad-mADAMTS7 WT vs EQ vs Luc, technical replicates, trypsin digest)
Type: cell-based
Conditions: TAILS neo-N-terminal peptide abundance; log fold change, Ad-mADAMTS7 EQ over Luc
Outline: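 Full-length mouse ADAMTS7 (WT or E373Q mutant, C-terminal 3xFLAG) or luciferase was transduced via adenovirus, 50 MOI, into HCA-SMC (SMC1, SMC2) or HUVEC. SMC1: pooled media, technical triplicates 400 ug; SMC2: process triplicates 300 ug; HUVEC: process triplicates 200 ug, bFGF2 10 ng/ml.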

Row | Substance | logFC.mEQ.over.Luc
1 | COL1A2_866 (LLGAPGILGLPGSR; listed as Homo sapiens) | −0.24
2 | COL1A2_731 (AAGQPGAKGER; listed as Homo sapiens) | −0.18
3 | CLEC11A_50 (HLQEALGLPAGR; listed as Homo sapiens) | −0.34
4 | COL8A1_90 (MKEIQPAPR; listed as Homo sapiens) | −0.25
5 | COL1A2_113 (FQGPAGEPGEPGQTGPAGAR; listed as Homo sapiens) | −0.61
6 | NID2_291 (HSSVPLGR; listed as Homo sapiens) | −0.08
7 | CDC37_43 (FQKEKEELDR; listed as Homo sapiens) | −0.12
8 | COL1A2_681 (VGAPGPAGATGDR; listed as Homo sapiens) | −0.34
9 | COL4A2_71 (YNGPPGLQGFPGLQGR; listed as Homo sapiens) | −0.37
10 | NUCB1_317 (FLASTQR; listed as Homo sapiens) | −0.11
11 | COL1A2_305 (LTGAKGAAGLPGVAGAPGLPGPR; listed as Homo sapiens) | −0.16
12 | MAP4_816 (VASTGPSSR; listed as Homo sapiens) | −0.18
13 | PXDN_1341 (SYQEDKPTKKTR; listed as Homo sapiens) | 1.36
14 | OS9_55 (SQSSDVVIVSSKYKQR; listed as Homo sapiens) | −0.06
15 | MAN2A1_51 (LQEKIDHLER; listed as Homo sapiens) | 0.18
16 | ECM1_43 (YAAPPSPPLSR; listed as Homo sapiens) | −0.04
17 | PXDN_1393 (QKTITDLR; listed as Homo sapiens) | 0.10
18 | COL4A2_172 (YALPKEER; listed as Homo sapiens) | 0.76
19 | OS9_54 ([code q]SQSSDVVIVSSKYKQR; also: modified N-terminal Gln; listed as Homo sapiens) | −0.14
20 | NUCB1_228 (LKEVWEELDGLDPNR; listed as Homo sapiens) | 0.07
21 | NUCB1_389 (LQQAVLHMEQR; listed as Homo sapiens) | 0.15
22 | COL1A2_91 (GPMGLMGPR; listed as Homo sapiens) | −0.07
23 | COL1A2_389 (SAGPPGPPGLR; listed as Homo sapiens) | 0.39
24 | COL1A2_1127 (SLRPKDYEVDATLKSLNNQIETLLTPEGSR; listed as Homo sapiens) | −0.45
25 | MMP1_24 (LETQEQDVDLVQKYLEKYYNLKN(deamidated)DGR; listed as Homo sapiens) | −0.08
26 | POLR3G_88 (LFCSHWSHIPGFK; listed as Homo sapiens) | 0.00

Row | Substance | logFC.mEQ.over.Luc
27 | COL1A2_1028 (LQGLPGIAGHHGDQGAPGSVGPAGPR; listed as Homo sapiens) | −0.28
28 | NID2_374 (VGGPDLKGQVEPWDER; listed as Homo sapiens) | −0.14
29 | COL1A2_960 (AGAPGPHGPVGPAGKHGNR; listed as Homo sapiens) | −0.35
30 | MAP1B_1065 (LTTPTKQLGAQSPGR; listed as Homo sapiens) | −0.20
31 | PAPPA_41 (AAGPATCATR; listed as Homo sapiens) | 0.35
32 | CDH11_467 (HQEAKVPVAIR; listed as Homo sapiens) | −0.03
33 | POSTN_754 (IITGPEIKYTR; listed as Homo sapiens) | 0.10
34 | COL1A2_630 (VGTAGPSGPSGLPGER; listed as Homo sapiens) | −0.27
35 | COL1A2_80 (QYDGKGVGLGPGPMGLMGPR; listed as Homo sapiens) | 0.19
36 | MAP4_815 (AVASTGPSSR; listed as Homo sapiens) | 0.10
37 | POSTN_413 (FSDDTLSMDQR; listed as Homo sapiens) | −0.02
38 | PPP1R18_295 (LSETLTR; listed as Homo sapiens) | −0.08
39 | NID2_951 (YAYPGAR; listed as Homo sapiens) | −0.58
40 | POSTN_790 (FIEGGDGHLFEDEEIKR; listed as Homo sapiens) | −0.31
41 | NID2_467 (LEDNIGSNTEVFTYNAANKETCEHNHR; listed as Homo sapiens) | −0.09
42 | COL5A1_544 (SQAQAILQQAR; listed as Homo sapiens) | −0.21
43 | LTBP2_1602 (EAGVHFR; listed as Homo sapiens) | 0.64
44 | PDLIM4_104 (IDPEIQDGSPTTSR; listed as Homo sapiens) | −0.13
45 | COL1A2_1037 (HHGDQGAPGSVGPAGPR; listed as Homo sapiens) | −0.79
46 | COL1A2_270 (VGNAGPAGPAGPR; listed as Homo sapiens) | 0.70
47 | COL1A2_425 (ASGPAGVR; listed as Homo sapiens) | −0.17
48 | COL18A1_1505 (LQPPVVQLHDSNPYPR; listed as Homo sapiens) | −0.01
49 | PSAP_171 (F[Met(O)]ANIPLLLYPQDGPR; listed as Homo sapiens) | 0.10
50 | POSTN_807 (LLQGDTPVR; listed as Homo sapiens) | −0.07
51 | MGAT4B_28 (LSGQKGDVVDVYQR; listed as Homo sapiens) | −0.23
